These results are taken from patent publication US20110300156A1 (Genmab, published 2011).

For assay [1], the target named is T1, human tissue factor (TF), membrane-bound on cells (human, UniProt P13726 33-295).
T1 construct: whole, on cells; also called cellular TF
Briefly: FACS, TF transfected CHO cells (S1015-TF). As for the experimental part:
(§1) Cells were resuspended in PBS (2×10⁶ cells/ml), put in 96-well V-bottom plates (50 μl/well). 50 μl of serially diluted HuMab in FACS buffer (PBS supplemented with 0.1% BSA and 0.02% Na-azide) was added to the cells and incubated for 30 minutes on ice. After washing three times with FACS buffer, 50 μl of phycoerythrin (PE)-conjugated goat anti-human IgGFc (Jackson ImmunoResearch), diluted 1:100 in FACS buffer, was added. After 30 minutes on ice (in the dark), cells were washed three times, and specific binding of the HuMabs was detected by flow cytometry on a FACSCalibur (BD Biosciences). HuMab-KLH was used as a negative control. Mouse anti-TF followed by PE-conjugated anti-mouse IgGFc was used as positive control. Binding curves were analyzed using non-linear regression (sigmoidal dose-response with variable slope) using GraphPad Prism V4.03 software (GraphPad Software, San Diego, Calif., USA).
(In general: In flow cytometry, cells or beads pass a laser one at a time.)

Assay [2] concerns the target T1, human tissue factor (TF), …. Put plainly: cell-based or functional assay.
For assay [3] the target is unchanged. Put plainly: FACS, Bx-PC3 cells. The method, then: as §1
Assay [4] shares this target. Briefly: cell-based or functional assay. The source holds these as a separate data set.
Assay [5] has as its target T2, TFECDHis (extracellular domain of tissue factor, amino acid 1-251, with C-terminal His tag) (human, UniProt P13726 33-251).
T2 construct: range 1-251; The stated range 1-251 starts at residue 1 of NP-001984; also called extracellular domain of TF
Put plainly: ELISA, coated TFECDHis, mean of 3. As for the experimental part:
The specificity of the obtained anti-TF HuMabs was evaluated by ELISA. ELISA plates (Microlon; Greiner Bio-One) were coated overnight at +4° C. with 0.5 μg/mL of TFECDHis in PBS, pH 7.4. Coated ELISA plates were emptied and blocked for one hour at room temperature with 2% (v/v) chicken serum (Gibco, Paisley, Scotland) in PBS and washed with PBS containing 0.05% Tween 20 (PBST). Subsequently, HuMabs, serially diluted in PBSTC (PBS supplemented with 2% (v/v) chicken serum and 0.05% (v/v) Tween-20), were incubated for 1 hr at RT under shaking conditions (300 rpm). Bound HuMabs were detected using HRP-conjugated goat-anti-human IgG antibodies (Jackson ImmunoResearch) diluted 1:5,000 in PBSTC, which were incubated for 1 hr at RT under shaking conditions (300 rpm). […] HuMab-KLH (a human monoclonal antibody against KLH (keyhole limpet haemocyanin)), was used as a negative control. Mouse anti-human TF (ERL) was used as positive control (HRP labeled anti-mouse IgG as conjugate). Binding curves were analyzed using non-linear regression (sigmoidal dose-response with variable slope) using GraphPad Prism V4.03 software.
(An ELISA detects its analyte on a solid surface through an enzyme-linked reagent.)

The target of assay [6] is T1, human tissue factor (TF), …. Briefly: FACS, A431 cells, 30 µg/mL. As for the experimental part:
as §1

For assay [7] the target is unchanged. Put plainly: FACS, MDA-MB-231 cells. The method, then: as §1
Assay [8] concerns the target T3, murine tissue factor (TF) on transfected HEK293F cells (murine, UniProt P20352 29-294).
T3 construct: whole, on cells; also called murine TF; TFmm
T3 sequence (looked up): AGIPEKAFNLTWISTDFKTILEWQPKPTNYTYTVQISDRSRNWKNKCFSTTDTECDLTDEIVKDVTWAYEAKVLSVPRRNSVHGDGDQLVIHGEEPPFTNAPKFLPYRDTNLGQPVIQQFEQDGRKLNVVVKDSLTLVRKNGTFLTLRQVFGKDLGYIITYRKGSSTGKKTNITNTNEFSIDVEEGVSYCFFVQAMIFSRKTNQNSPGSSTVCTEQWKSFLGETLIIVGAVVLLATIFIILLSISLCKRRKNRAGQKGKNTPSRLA
Put plainly: FACS on transfected HEK293F cells, 30 µg/mL antibody [panel L].

Assay [9] concerns the target T1, human tissue factor (TF), …. Put plainly: FACS, A431 cells. The method, then: as §1
Assay [10] has the same target. Put plainly: FACS, Bx-PC3 cells, 30 µg/mL. As for the experimental part: as §1
For assay [11], the target named is T4, TF (Innovin) (UniProt P13726 33-295, limits assumed). Briefly: cell-based or functional assay.
For assay [12], the target named is T1, human tissue factor (TF), …. Put plainly: FACS, MDA-MB-231 cells, 30 µg/mL. As for the experimental part: as §1
Assay [13] has the same target. Put plainly: cell-based or functional assay. This is another data set of the same source.
Assay [14] has the same target. Briefly: FACS, TF transfected CHO cells (S1015-TF), 7.5 µg/mL. The method, then: as §1
Assay [15] addresses T2, TFECDHis (extracellular domain of …). Briefly: competition ELISA, inhibition of FVIIa (100 nM) binding to coated TFECDHis. As for the experimental part: ELISA plates were coated overnight with TFECDHis (0.5 μg/mL, 100 μL per well). Plates were emptied, blocked with PBS containing 2% (v/v) chicken serum (1 hour, RT), and emptied again. […] Plates were washed and incubated with swine-anti-rabbit IgG-HRP antibody (1:2,500; DAKO). After washing, the immune complexes were visualized using ABTS as a substrate.

The target of assay [16] is T1, human tissue factor (TF), …. Briefly: FACS on MDA-MB-231 cells (~900.000 TF molecules/cell) [panel MDA-MB-231 cells]. As for the experimental part:
as §1
(§2) Binding of anti-TF HuMabs to membrane-bound TF on cell lines expressing different levels of TF was determined by FACS analysis, essentially as described supra. Mouse anti-TF antibody followed by PE-conjugated anti-mouse IgGFc was used as a positive control. Fluorescence was measured on a FACSCantoII. Binding curves were analyzed essentially as described supra, using GraphPad Prism 5 software. The amount of TF molecules on cell lines was determined by Qifi kit (Dako, Glostrup, Denmark), according to the manufacturer's instructions.

Assay [17] has as its target T4, TF (Innovin). Put plainly: cell-based or functional assay. This is another data set of the same source.
Assay [18] concerns the target T1, human tissue factor (TF), …. Briefly: FACS on AsPC-1 cells (~175.000 TF molecules/cell) [panel AsPC-1 cells]. As for the experimental part:
as §1, §2

The target in assay [19] is T2, TFECDHis (extracellular domain of …). Put plainly: SPR avidity format: TFECDHis immobilized, bivalent HuMab as analyte (printed as avidity nM). The method, then:
Antibody binding to TF was analyzed by surface plasmon resonance in a BIAcore 3000 (GE Healthcare). TFECDHis was used for the analysis. HuMab antibodies (500 resonance units) were immobilized on the CM-5 sensor chip according to the procedure recommended by the manufacturer. Briefly, after surface activation by EDC and NHS HuMab antibody was injected over the activated CM-5 surface in 10 mM sodium-acetate, pH ranging from 4.0 to 5.5 at 5 μl/min. followed by 1 M Ethanolamine for deactivation. Concentration series of TFECDHis in HBS-EP buffer were injected over the immobilized antibodies at a flow rate of 30 μl/min for 180 sec. Regeneration of the HuMab surface was performed by injection of 10 mM Glycine-HCl pH 2.0 or 10 mM sodium acetate pH 3.0. Kinetic analysis was performed using double reference subtraction and model 1:1 (langmuir) binding analysis.
TF (TFECDHis) binding to TF-specific HuMabs was determined essentially as described above, with TFECDHis being immobilized on the CM-5 sensor chip (300 resonance units), and concentration series of Humab antibodies used for kinetic analysis. Kinetic analysis was performed using double reference subtraction and model 1:1 (langmuir) binding analysis.

Assay [20] concerns the target T3, murine tissue factor (TF) on …. Briefly: FACS on transfected HEK293F cells, 30 µg/mL antibody [panel N].
Assay [21] shares this target. Briefly: FACS on transfected HEK293F cells, 30 µg/mL antibody [panel O].

B1: anti-TF HuMab 101 (antibody, V domains shown)
VH: EVQLLESGGGLVQPGGSLRLSCAASGFTFSNYAMSWVRQAPAKGLDWVSGISGSGVTTYYADSVKGRFTISRDNSKDTLYLQMNSLRAEDTAVYFCAKTPWGYYFDYWGQGILVAVSS
VL: DIQMTQSPSSLSASVGDRVTITCRASQGISSWLAWYQQKPEKAPKSLIYAASSLQSGVPSRFSGSGSGTDFTLTISSLQPEDFATYYCQQYNSYPLYTFGQGTKLEIK
notes: Human monoclonal antibody from HuMab mice
In general, EC50 refers to the midpoint of the concentration-response curve. As for B1, the concentration giving a half-maximal response (EC50) in assay [1] was determined as 1770 pM; in [3], 2250 pM; in [5] it was 280 pM; in assay [7], 850 pM; in [9], 3160 pM. Also, the “% max inhibition of FVIIa induced ERK phosphorylation (A431)” value in assay [2] is 57%. For the same molecule, the “IC50, inhibition of FVIIa induced ERK phosphorylation (A431)” value in assay [2] turned out to be 1050 pM. In addition, in assay [4], the “IC50, inhibition of FVIIa induced IL-8 release (MDA-MB-231)” value was determined as 22700 pM. Besides, the “max inhibition of FVIIa induced IL-8 release (MDA-MB-231)” value in assay [4] is 74.9%. For the same molecule, the “Max MFI” value was determined as 2930 in [6], 1220 in [10], 2070 in [12] and 5860 in assay [14]. In addition, the binding result in assay [8] is listed as “no binding (tested: 30 µg/mL)”. In addition, the “IC50, inhibition of blood coagulation (TF induced clotting time)” value in [11] was 700 pM. In assay [13], the “EC50 of ADCC, A431 cells” value is 10 pM. Further, the “EC50 of ADCC, Bx-PC3 cells” value in assay [13] is 90 pM. Also, in assay [13], the “EC50 of ADCC, MDA-MB-231 cells” value is 100 pM.

B2: anti-TF HuMab 111 (antibody, V domains shown)
VH: QVQLVESGGGVVQPGRSLRLSCAGSGFTFNRYAMYWVRQAPGKGLDWVAVISNDGINKYYADSVKGRFTISRDNSKNTLYLQMNSLRAEDTAVYYCARDHTMVRGAFDYWGQGTLVTVSS
VL: EIVLTQSPATLSLSPGERATLSCRASQSVSSYLAWYQQKPGQAPRLLIYDASNRATGIPARFSGSGSGTDFTLTISSLEPEDFAVYYCQQRSNWPLTFGGGTKVEIK
notes: as for B1
The EC50 (read off the curve) is the concentration at which the effect is half-maximal. On to B2, for which the EC50 in assay [1] turned out to be 550 pM; in [3] it was 1830 pM; in [7], 1030 pM; in [9] it was 2880 pM. In addition, the max inhibition in assay [15] came out at 79%. In addition, the “% max inhibition of FVIIa induced ERK phosphorylation (A431)” value in assay [2] stood at 52%. In addition, the “IC50, inhibition of FVIIa induced ERK phosphorylation (A431)” value in [2] was above 66600 pM. The “IC50, inhibition of FVIIa induced IL-8 release (MDA-MB-231)” value in [4] is above 200000 pM. Moreover, the “max inhibition of FVIIa induced IL-8 release (MDA-MB-231)” value in assay [4] stood at 40.1%. Besides, the figures for the “EC50 (read off the curve)” value in assay [16] and in assay [18] were around 0.06 µg/mL and around 0.1 µg/mL, respectively. Besides, the “Max MFI” value in assay [6] amounted to 3040; in assay [10] it was 1130; in assay [12], 1770; in assay [14] it was 5350. The “% max inhibition of FXa generation” value in assay [17] was found to be 7%. For the same molecule, the “IC50, inhibition of FXa generation” value in [17] stood at 70 pM. The Kd in assay [19] was determined as 110 pM. The binding result in [20] is reported as “no binding (tested: 30 µg/mL)”. Further, in [13], the “EC50 of ADCC, A431 cells” value amounted to 1560 pM. For the same molecule, the “EC50 of ADCC, MDA-MB-231 cells” value in assay [13] is 840 pM.

B3: anti-TF HuMab 114 (antibody, V domains shown)
VH: QVQLVESGGGVVQPGRSLRLSCVASGFTVSNDGMHWVRQAPGKGLEWVALIWYDGVNKNYADSVKGRFTISRDKSKNTLYLQMNSLRAEDTAVYYCARRPGTFYGLDVWGQGTTVTVSS
VL: not shown
notes: as for B1
On to B3, for which, in assay [15], the max inhibition stood at 90%. In addition, the binding result in assay [21] is given as “no binding (tested: 30 µg/mL)”.
